Drawing on the supplement of paper PMC10567573, this text covers protein stability index for 73 sequences.

± gives the standard deviation.

The nature of this series: protein stability index of a GFP-peptide fusion (GPS, HEK-293T) (PSI 1-6); higher = more stable.
Where [1] appears, read: treatment: DMSO, c terminus: a fixed tail appended.
Setting [2] is: treatment: MLN4924 1 uM, 8 h, c terminus: a fixed tail appended.
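Note: 24-mer peptide tiles fused after GFP, lentivirally expressed, FACS-sorted into six equal bins by GFP/DsRed ratio, decoded by Illumina sequencing, PSI is the read-weighted mean bin number.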

As to KTHSQELMKESLQTGDLLSTFHTI [PLAGL1], the protein stability index by setting is: under setting [1], 3.49 ± 0.27; under setting [2], 3.64 ± 0.23.

Take KVEKMLISSIKEKYPSHSFIGEES [IMPA1]: the protein stability index was found to be 3.26 ± 0.2 under setting [1] and 3.17 ± 0.14 under setting [2].

Consider KVFLHERELWLKFHEVGTEMIITK [TBX5], for which the protein stability index by setting is: under setting [1], 2.12 ± 0.19; under setting [2], 2.33 ± 0.44.

With KVLGELNILPNTQKVTCFYQPAPY [TENT5D], the protein stability index amounted to 2.5 ± 0.23 under setting [1] and 2.16 ± 0.3 under setting [2].

On to KVLQGGEQEIQFEDFTNTLRELGH [PKD2L1], for which the protein stability index reads like this: under setting [1], 3.08 ± 0.35; under setting [2], 3.31 ± 0.23.

Take KVVEAHKIVLCAVSHVFMLLFNVK [RHOBTB3]: the protein stability index is, setting by setting: under setting [1], 2.81 ± 0.64; under setting [2], 3.07 ± 0.46.

For the sequence KVWSLTGQVAEDRFPESHLPIQTP [TLE6], the protein stability index reads like this: under setting [1], 3.58 ± 0.21; under setting [2], 3.47 ± 0.39.

As for KVYDDMAFRYLSWILFPLLGCYAV [CLPTM1], the protein stability index was found to be 3.15 ± 0.23 under setting [1] and 3.07 ± 0.55 under setting [2].

As for LAARSGAAYGPGARGEDRAGPQSP [TSPAN10], the protein stability index was 5.15 ± 0.22 under setting [1] and 4.9 ± 0.09 under setting [2].

With LAIDFIDEGRLLLEFDLLIFSFGQ [SOAT2], the protein stability index by setting is: under setting [1], 3.35 ± 0.39; under setting [2], 2.78 ± 0.57.

Turning to LARLEERSSEFYRVTTEQYQKAAE [CHCHD3], the protein stability index by setting is: under setting [1], 4.29 ± 0.27; under setting [2], 4.29 ± 0.21.

On to LASLVSQGMIQLALSGASQPGPSG [RETREG3], for which the protein stability index runs as follows: under setting [1], 2.89 ± 1.2; under setting [2], 1.99 ± 0.66.

LDKLRNEWASHTAALTNKHSQELT [SASS6]: the protein stability index was found to be 3.85 ± 0.33 under setting [1] and 3.83 ± 0.3 under setting [2].

For LDLFGVSMVVPLLSLHVKSLGASP [MFSD9], the protein stability index reads like this: under setting [1], 2.81 ± 0.62; under setting [2], 3.02 ± 0.17.

With LDQKKQDPRVQDFLQRCLESPFSR [NET1], the protein stability index reads like this: under setting [1], 3.51 ± 0.18; under setting [2], 3.55 ± 0.44.

Turning to LDRLKVLMQVHASRSNNMGIVGGF [SLC25A25], the protein stability index was 2.25 ± 0.7 under setting [1] and 2.1 ± 0.36 under setting [2].

As to LEPEAAEEALENGPKESLPVIAAP [ACBD3], the protein stability index under setting [1] was 5.67 ± 0.25 and the protein stability index under setting [2] was determined as 5.64 ± 0.24.

Take LEPVKKSRLQLLGATCMFVASKMK [CCND1]: the protein stability index runs as follows: under setting [1], 2.23 ± 0.16; under setting [2], 2.12 ± 0.41.

Turning to LEQIMESVKSKIGELEDESLNRAC [CEP70], the protein stability index is, setting by setting: under setting [1], 4.47 ± 0.35; under setting [2], 4.46 ± 0.36.

As to LFIQKEEQLQQILKRKNKQAFLDE [MNAT1], the protein stability index reads like this: under setting [1], 2.5 ± 0.47; under setting [2], 2.61 ± 0.32.

As to LFPGRVSVDLMLGLPAQQVGPWLG [RSAD1], the protein stability index reads like this: under setting [1], 2.41 ± 0.86; under setting [2], 2.32 ± 0.9.

For the sequence LFPVFLATDYLRYKPVVLLQGLSL [SLC19A2], the protein stability index stood at 2.88 ± 0.41 under setting [1] and 2.84 ± 0.72 under setting [2].

On to LGGIGFSSCIVCLFVGLYYNVIIG [SLC6A17], for which, under setting [2], the protein stability index came out at 3.92 ± 0.088.

Turning to LGNLVEGMDFHRFYFENALSKSNK [CAMK2D], the protein stability index by setting is: under setting [1], 2.89 ± 0.2; under setting [2], 3.23 ± 0.066.

LGSVQFMEQFCWPHLRSFCETCVG: the protein stability index under setting [1] worked out at 2.39 ± 0.29 and the protein stability index under setting [2] is 2.21 ± 0.41.

On to LGYAASLEASVQDDAGTSGGPSSP [C2CD2L], for which the protein stability index by setting is: under setting [1], 5.45 ± 0.34; under setting [2], 5.53 ± 0.22.

LHAPPAFYSTSSGLANGLQLLCPW [VENTX]: the protein stability index runs as follows: under setting [1], 2.32 ± 0.1; under setting [2], 2.27 ± 0.26.

Turning to LHCYRDRPHEVLLCSDLVKAYQRC [CHCHD6], the protein stability index under setting [1] came to 2.16 ± 0.36 and the protein stability index under setting [2] turned out to be 2.19 ± 0.24.

LHELSSRVEASHLTTSQERELGIR [FBF1]: the protein stability index runs as follows: under setting [1], 4.46 ± 0.17; under setting [2], 4.36 ± 0.25.

In the case of LHPPVDDPQSGELPSERWNPTQNV [CDC34], the protein stability index runs as follows: under setting [1], 5.02 ± 0.36; under setting [2], 5.04 ± 0.32.

Take LHQETQLIHVYLPLTSHILRAFVN [SNX8]: the protein stability index is 3.06 ± 0.67 under setting [1] and 2.86 ± 0.48 under setting [2].

As for LIGDTLLVAPVLEPGKQERDVYLP [MYORG], the protein stability index worked out at 3.23 ± 0.12 under setting [1] and 3.03 ± 0.22 under setting [2].

In the case of LILSIIFIEGYCTPEEVIWEALNM [MAGEA10], the protein stability index was 3.32 ± 0.44 under setting [1] and 3.21 ± 0.79 under setting [2].

For the sequence LKPHLEGAAFRDHQLLEPIRDFEA [TRIM29], the protein stability index under setting [1] worked out at 3.88 ± 0.31 and the protein stability index under setting [2] was 4.26 ± 0.25.

On to LKRSHRESQFLMAKKNFNTNLLE [HESX1], for which the protein stability index is, setting by setting: (treatment: DMSO, c terminus: native) 3.36 ± 0.24; (treatment: MLN4924 1 uM, 8 h, c terminus: native) 3.62 ± 0.2.

In the case of LKSDLEKASALNTKIRALQGSLEN [CD207], the protein stability index runs as follows: under setting [1], 3.91 ± 0.26; under setting [2], 3.73 ± 0.66.

Take LKTKDGKLPFCAMGVSSVIHPKNP [CPOX]: the protein stability index under setting [1] came to 3.17 ± 0.34 and the protein stability index under setting [2] is 3.17 ± 0.51.

For LLETNPYLLALTIIVSIVHSVFEF [CLPTM1], the protein stability index runs as follows: under setting [1], 3.08 ± 0.33; under setting [2], 2.69 ± 0.13.

With LLFINHRLVESTSLRKAIETVYAA [MLH1], the protein stability index under setting [1] was 2.2 ± 0.24.

LLNSPPSFVCWSRGFMEMNGRGEL [AUP1] displayed a protein stability index under setting [1] of 2.1 ± 0.52 and a protein stability index under setting [2] of 2.07 ± 0.46.

For the sequence LLPEDMALRNLPPLRAAHRRFNFD [SMG5], the protein stability index is, setting by setting: under setting [1], 3.06 ± 0.38; under setting [2], 3.2 ± 0.33.

For the sequence LLQDKQFELALQLAEMKDDSDSEK [VPS39], the protein stability index runs as follows: under setting [1], 5.19 ± 0.23; under setting [2], 5.17 ± 0.26.

For the sequence LLRAKIEVEKLKAIRLRHDLPEYN [RAD54B], the protein stability index by setting is: under setting [1], 2.69 ± 0.43; under setting [2], 2.75 ± 0.49.

Consider LLSDGSNTLSVSYKKGRMMKDISN [SLC6A17], for which the protein stability index runs as follows: under setting [1], 3.03 ± 0.27; under setting [2], 3.35 ± 0.31.

Take LLVYDITNRWSFDGIDRWIKEIDE [RAB40C]: the protein stability index is, setting by setting: under setting [1], 2.05 ± 0.22; under setting [2], 2.18 ± 0.45.

Consider LMCGGIAFWSLVTLGSSFIPGEHF [SPNS1], for which the protein stability index runs as follows: under setting [1], 3.21 ± 0.64; under setting [2], 3.18 ± 0.21.

Take LMGDESACIAYIRITQYLDAGGIP [CAMK2A]: the protein stability index is, setting by setting: under setting [1], 3.21 ± 0.89; under setting [2], 2.77 ± 0.68.

For LMQLQDIQYLTENIWASQSVLSAC [IQUB], the protein stability index reads like this: under setting [1], 2.67 ± 0.42; under setting [2], 2.24 ± 0.37.

As to LPAEVAGLSQVLLRGGGQVLLGWT [POMT2], the protein stability index worked out at 2.26 ± 0.54 under setting [1] and 2.26 ± 0.14 under setting [2].

LPAGPGEEWERRPQEPRPPKRATK [CPXM2]: the protein stability index under setting [1] is 5.04 ± 0.53 and the protein stability index under setting [2] is 5.44 ± 0.28.

In the case of LPATLVMTVPATAIYFTAYDQLKA [SLC25A39], the protein stability index was determined as 3.02 ± 0.33 under setting [1] and 3 ± 0.51 under setting [2].

LPDNFTLKEDGMETVPWFPKKISD [TPH1]: the protein stability index is 4.4 ± 0.19 under setting [1] and 4.3 ± 0.12 under setting [2].

Turning to LPERRGTCADRDNLTRRFSDLGFE [CASP6], the protein stability index under setting [1] was 3.16 ± 0.21 and the protein stability index under setting [2] stood at 3.09 ± 0.086.

As to LPHDFIDSLEKTDDDKYKITLKYP [NLN], the protein stability index by setting is: under setting [1], 3.7 ± 0.3; under setting [2], 3.13 ± 0.089.

As for LPILGHRDYKIQASRTWCFYNTED [PTGFR], the protein stability index by setting is: under setting [1], 2.41 ± 0.31; under setting [2], 2.53 ± 0.33.

As for LPLPLSLAPPPLPLPAAAVVHVSF [ZBTB22], the protein stability index was found to be 2.34 ± 0.3 under setting [1] and 2.15 ± 0.17 under setting [2].

For the sequence LPSRRDVYLSPRDDGYSTKDSYSS [RBMX], the protein stability index reads like this: under setting [1], 4.11 ± 0.13; under setting [2], 3.99 ± 0.42.

In the case of LQGFDQLRLEGLLCDVTLMPGDTD [KLHL13], the protein stability index by setting is: under setting [1], 3.61 ± 0.36; under setting [2], 3.88 ± 0.32.

Regarding LQIDNARLAADDFRTKFETEQALR [KRT17], the protein stability index stood at 4.03 ± 0.24 under setting [1] and 4.27 ± 0.3 under setting [2].

On to LQKVLLMLVDGIDPNFKMEHQNKR [EHMT1], for which the protein stability index is, setting by setting: under setting [1], 2.62 ± 0.73; under setting [2], 2.38 ± 0.33.

For the sequence LQNMGLLLDKLAKENQDIRLLQAQ [PBXIP1], the protein stability index was 2.82 ± 0.2 under setting [1] and 2.93 ± 0.35 under setting [2].

As to LQRVLQNCPWPMSCPGSSYRTVVR [EMID1], the protein stability index runs as follows: under setting [1], 2.49 ± 0.27; under setting [2], 2.74 ± 0.74.

As to LQSAAGKDAAKQIAWIKDKLLHIY [PDS5B], the protein stability index runs as follows: under setting [1], 2.59 ± 0.39; under setting [2], 3.09 ± 0.61.

Regarding LQTSLENGTRVQEEPELVFTLGDC [FKBP8], the protein stability index came to 4.34 ± 0.2 under setting [1] and 4.77 ± 0.25 under setting [2].

On to LREENKALREENRMLSKENKILQV [CBY2], for which the protein stability index is 4.75 ± 0.12 under setting [1] and 4.69 ± 0.15 under setting [2].

LRGLCRPLRPLLGFRESDSAKPAS [C6orf223] registered a protein stability index under setting [1] of 3.31 ± 0.32 and a protein stability index under setting [2] of 3.44 ± 0.23.

Consider LRHLSPTPSEEHMKNKNNVTEFIL [OR4A15], for which the protein stability index is, setting by setting: under setting [1], 3.27 ± 0.18; under setting [2], 3.36 ± 0.12.

LRNCKTYQARKPLWFYNTSLKFFL [RHOBTB3]: the protein stability index came out at 2.68 ± 0.55 under setting [1] and 2.84 ± 0.87 under setting [2].

Consider LRRFVVRTMCAVLGLVARQEDSGL [AUP1], for which the protein stability index runs as follows: under setting [1], 2.17 ± 0.71; under setting [2], 1.91 ± 0.095.

Regarding LRTIPSPYPASKADIPSVAFSSRL [DCAF4], the protein stability index stood at 2.79 ± 0.34 under setting [1] and 2.94 ± 0.35 under setting [2].

On to LSAEPGWQAKREEEEEEEEEAEAG [CHGA], for which the protein stability index is, setting by setting: under setting [1], 5.62 ± 0.081; under setting [2], 5.4 ± 0.59.

LSCTLVPRSGEQAEGSPGGPGDSQ [CDKN1A]: the protein stability index was 5.03 ± 0.41 under setting [1] and 5.05 ± 0.13 under setting [2].

The sequence LSEIFPGGIRGRAMALTSSMNWGI [SLC2A12] showed a protein stability index under setting [1] of 1.91 ± 0.4 and a protein stability index under setting [2] of 2.2 ± 0.097.
